Results as given in patent US20170015742A1 (published 2017).
Residue numbers refer to the chain shown, from its start. Each block holds one binder with its values, some of them ahead of it.

Biological target: Human VEGF-A 165 (human, UniProt P15692 207-395)
Assay: cell-based or functional assay

Sequence of Human VEGF-A 165 (P15692 other isoform, or with tags, fused parts or gaps limits assumed): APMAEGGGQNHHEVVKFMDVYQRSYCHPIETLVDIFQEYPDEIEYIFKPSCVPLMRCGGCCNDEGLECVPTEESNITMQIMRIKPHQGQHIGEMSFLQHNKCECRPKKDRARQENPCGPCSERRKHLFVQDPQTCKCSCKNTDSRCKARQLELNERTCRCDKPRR

B1: hBEW-9E10.1 (antibody, V domains shown)
VH: EIQLVQSGSELKKPGASVKVSCKASGYTFTNYGMYWVKQAPGQGLEYMGWIDTETGRPTYADDFKGRFVFSLDTSVSTAYLQISSLKAEDTAVYFCARWSGDTTGIRGPWFAYWGQGTLVTVSS
VL: DIRMTQSPSSLSASVGDRVTIECLASEDIYSDLAWYQQKPGKSPKLLIYNANGLQNGVPSRFSGSGSGTDYSLTISSLQPEDVATYFCQQYNYFPGTFGQGTKLEIK
- hVEGF165 IC50 (nM), HMVEC-d proliferation: 0.064 nM

B2: hBEW-9E10.4 (antibody, V domains shown)
VH: B1 VH
VL: B1 VL with E22T, S72T
- hVEGF165 IC50 (nM), HMVEC-d proliferation: 0.071 nM

B4: hBEW-9E10.5 (antibody, V domains shown)
VH: EIQLVQSGAEVKKPGSSVKVSCKASGYTFTNYGMYWVKQAPGQGLEYMGWIDTETGRPTYADDFKGRFTFTADKSTSTAYMELSSLRSEDTAVYFCARWSGDTTGIRGPWFAYWGQGTLVTVSS
VL: B1 VL with E22T, S72T
- hVEGF165 IC50 (nM), HMVEC-d proliferation: 0.229 nM

B5: hBEW-9E10.3 (antibody, V domains shown)
VH: B4 VH with I2V, K38R, Y47W, F95Y
VL: B1 VL
- hVEGF165 IC50 (nM), HMVEC-d proliferation: 0.062 nM

B7: hBEW-9A8.17 (antibody, V domains shown)
VH: EIQLVQSGSELKKPGASVKVSCKASGYTFTNYGMYWVKQAPGQGLEYMGWINTETGKPIYADDFKGRFVFSLDTSVSTAYLQISSLKAEDTAVYYCARVDYDGSFWFAYWGQGTLVTVSS
VL: ETVLTQSPATLSLSPGERATLSCRASESVSTVIHWYQQKPGQQPRLLIHGASNLESGVPARFSGSGSGTDFTLTISSLEPEDFAVYFCQQHWNDPPTFGQGTKLEIK
- hVEGF165 IC50 (nM), HMVEC-d proliferation: 0.059 nM

B10: hBEW-5C3.5 (antibody, V domains shown)
VH: EIQLVQSGAEVKKPGSSVKVSCKASGYTFTNYGVYWVKQAPGQGLEYMGWINTETGKPTYADDFKGRFTFTLDKSTSTAYMELSSLRSEDTAVYFCARARQLDWFVYWGQGTLVTVSS
VL: DTQLTQSPSSLSASVGDRVTISCRARESLTTSLSWFQQKPGKQPKLLIYGASKLESGVPSRFSGSGSGTDFTLTISSLQPEDFATYFCQQSWYDPPTFGGGTKVEIK
- hVEGF165 IC50 (nM), HMVEC-d proliferation: 0.123 nM

Further lines, results first:

- hVEGF165 IC50 (nM), HMVEC-d proliferation: 0.068 nM
B3: hBEW-9E10.6 (antibody, V domains shown)
VH: B4 VH with I2V, K38R, Y47W, F95Y
VL: B1 VL with E22T, S72T

- hVEGF165 IC50 (nM), HMVEC-d proliferation: 0.181 nM
B6: hBEW-9E10.2 (antibody, V domains shown)
VH: B4 VH
VL: B1 VL

- hVEGF165 IC50 (nM), HMVEC-d proliferation: 0.064 nM
B8: hBEW-9A8.20 (antibody, V domains shown)
VH: EIQLVQSGAEVKKPGASVKVSCKASGYTFTNYGMYWVKQAPGQGLEYMGWINTETGKPIYADDFKGRFTFTLDTSTSTAYMELRSLRSDDTAVYYCARVDYDGSFWFAYWGQGTLVTVSS
VL: B7 VL

- hVEGF165 IC50 (nM), HMVEC-d proliferation: 0.09 nM
B9: hBEW-9A8.21 (antibody, V domains shown)
VH: B8 VH with K38R, Y47W
VL: B7 VL

- hVEGF165 IC50 (nM), HMVEC-d proliferation: > 2 nM
B11: hBEW-5C3.6 (antibody, V domains shown)
VH: B10 VH with I2V, K38R, Y47W, F95Y
VL: B10 VL
